The values below come from patent US20210380703A1 (RIGEL PHARMACEUTICALS, published 2021).

The target in one test is human ACVR2A (human, UniProt P27037 20-135, limits assumed). In words: ELISA. The procedure, abridged:
(§1)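 ELISA measured binding of ACVR2A-specific monoclonal antibodies to human and mouse ACVR2A. Biotinylated goat anti-human kappa light chain served as positive control and human Fc as negative control.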
In general terms: An ELISA detects its analyte on a solid surface through an enzyme-linked reagent.

For another test, the target named is mouse ACVR2A (mouse, UniProt P27038 20-135, limits assumed). In words: ELISA. The procedure, abridged: as §1
Chain of mouse ACVR2A (P27038 20-135 limits assumed): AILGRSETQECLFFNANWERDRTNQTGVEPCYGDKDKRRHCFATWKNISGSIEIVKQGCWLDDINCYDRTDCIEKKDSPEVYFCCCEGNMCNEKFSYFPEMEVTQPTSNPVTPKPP
Test [1] deals with T1, biotinylated goat anti-human kappa light chain.
T1 construct: Positive control of the ELISA
Put plainly: ELISA; positive control. The procedure, abridged: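 mAb binding by ELISA; antigens: hu ACVR2A, mu ACVR2A; pos ctrl biotinylated goat anti-hu kappa LC; neg ctrl hu Fc.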
Further: test concentration or dose not given here.

Chain of human ACVR2A (P27037 20-135 limits assumed): as the sequence (P27038 20-135 limits assumed) above, with R20K, I73V counted along it

B1: 374_D12 (antibody, V domains shown)
VH: EVQLLESGGGLVQPGGSLRLSCAASGFTFDSYSMNWVRQAPGKGLEWVSGINYNGGYTGYADSVKGRFTISRDNSKNTLYLQMNSLRAEDTAVYYCARSATWHDTHLDYWGQGTLVTVSS
VL: DIQMTQSPSSLSASVGDRVTITCRASQSIVSYVNWYQQKPGKAPKLVIYAATSRASGVPSRFSGSGSGTDFTLTISSLQPEDFATYYCQQSYDLPLTFGGGTKVEIK
notes: VH/VL only
For the molecule B1, the results for the optical density (with human ACVR2A; with mouse ACVR2A; in test [1]) were 3.55 OD, 3.28 OD and 3.09 OD, respectively.

B2: 374_F01 (antibody, V domains shown)
VH: EVQLLESGGGLVQPGGSLRLSCAASGFTFDSYSMNWVRQAPGKGLEWVSNINYNGGYTGYADSVKGRFTISRDNSKNTLYLQMNSLRAEDTAVYYCARSANWHDTALDYWGQGTLVTVSS
VL: DIQMTQSPSSLSASVGDRVTITCRASQSILSYVNWYQQKPGKAPKLVIYAATSRHSGVPSRFSGSGSGTDFTLTISSLQPEDFATYYCQQSYENPLTFGGGTKVEIK
notes: VH/VL only
For the molecule B2, the optical density with human ACVR2A is 3.29 OD; with mouse ACVR2A, 3.6 OD; in test [1] it was 3.03 OD.

B3: 374_F04 (antibody, V domains shown)
VH: EVQLLESGGGLVQPGGSLRLSCAASGFTFSSYGMNWVRQAPGKGLEWVSGINYNSGYKSYADSVKGRFTISRDNSKNTLYLQMNSLRAEDTAVYYCARSANWHDTALDYWGQGTLVTVSS
VL: DIQMTQSPSSLSASVGDRVTITCRASQSILTYVNWYQQKPGKAPKLLIYAATSRASGVPSRFSGSGSGTDFTLTISSLQPEDFATYYCQQSYNSPLTFGGGTKVEIK
notes: VH/VL only
Consider B3, for which the optical density with human ACVR2A turned out to be 3.58 OD; in the test with mouse ACVR2A, 3.65 OD; in test [1], 3.23 OD.

B4: 374_F10 (antibody, V domains shown)
VH: EVQLLESGGGLVQPGGSLRLSCAASGFTFSSYSMNWVRQAPGKGLEWVSGINYNGGYTSYADSVKGRFTISRDNSKNTLYLQMNSLRAEDTAVYYCARSANWHDTALDYWGQGTLVTVSS
VL: DIQMTQSPSSLSASVGDRVTITCRASQSILSYLNWYQQKPGKAPKLVIYAATSRASGVPSRFSGSGSGTDFTLTISSLQPEDFATYYCQQSYDNPLTFGGGTKVEIK
notes: VH/VL only
Consider B4, for which the optical density with human ACVR2A stood at 3.21 OD; in the test with mouse ACVR2A it was 3.45 OD; in test [1] it was 3.28 OD.

B5: 374_E09 (antibody, V domains shown)
VH: EVQLLESGGGLVQPGGSLRLSCAASGFTFSDYSMNWVRQAPGKGLEWVSGINYNGGYKGYADSVKGRFTISRDNSKNTLYLQMNSLRAEDTAVYYCARSATWHDTHLDYWGQGTLVTVSS
VL: DIQMTQSPSSLSASVGDRVTITCRASQSIVTYLNWYQQKPGKAPKLVIYAATSRASGVPSRFSGSGSGTDFTLTISSLQPEDFATYYCQQSYDSPLTFGGGTKVEIK
notes: VH/VL only
On to B5, for which the optical density turned out to be 3.67 OD with human ACVR2A, 3.58 OD in the test with mouse ACVR2A and 3.16 OD in test [1].

B6: 374_E05 (antibody, V domains shown)
VH: EVQLLESGGGLVQPGGSLRLSCAASGFTFSSYSMNWVRQAPGKGLEWVAGINYNGGYTSYADSVKGRFTISRDNSKNTLYLQMNSLRAEDTAVYYCARSANWHDTALDYWGQGTLVTVSS
VL: DIQMTQSPSSLSASVGDRVTITCRASQSILSFVNWYQQKPGKAPKLVIYAATSRASGVPSRFSGSGSGTDFTLTISSLQPEDFATYYCQQSYNLPLTFGGGTKVEIK
notes: VH/VL only
In the case of B6, the optical density with human ACVR2A was 3.56 OD; with mouse ACVR2A it was 3.57 OD; in test [1], 3.18 OD.

B7: 374_H04 (antibody, V domains shown)
VH: EVQLLESGGGLVQPGGSLRLSCAASGFTFDSYSMNWVRQAPGKGLEWVSGINYNSGYTSYADSVKGRFTISRDNSKNTLYLQMNSLRAEDTAVYYCARSANWHDTALDYWGQGTLVTVSS
VL: DIQMTQSPSSLSASVGDRVTITCRASQSILTYLNWYQQKPGKAPKLLIYAATSRASGVPSRFSGSGSGTDFTLTISSLQPEDFATYYCQQSYDNPLTFGGGTKVEIK
notes: VH/VL only
Take B7: the optical density in the test with human ACVR2A was 3.28 OD; with mouse ACVR2A, 3.31 OD; in test [1] it was 3.19 OD.

B8: 374_E08 (antibody, V domains shown)
VH: EVQLLESGGGLVQPGGSLRLSCAASGFTFSSYGMNWVRQAPGKGLEWVAGINYNGGYKSYADSVKGRFTISRDNSKNTLYLQMNSLRAEDTAVYYCARSANWHDTALDYWGQGTLVTVSS
VL: DIQMTQSPSSLSASVGDRVTITCRASQSILSYLNWYQQKPGKAPKLLIYAATSRHSGVPSRFSGSGSGTDFTLTISSLQPEDFATYYCQQSYDLPLTFGGGTKVEIK
notes: VH/VL only
Consider B8, for which the optical density with human ACVR2A stood at 3.5 OD; with mouse ACVR2A it was 3.52 OD; in test [1], 3.26 OD.

B9: 374_G04 (antibody, V domains shown)
VH: EVQLLESGGGLVQPGGSLRLSCAASGFTFSSYSMNWVRQAPGKGLEWVAGINYNGGYTGYADSVKGRFTISRDNSKNTLYLQMNSLRAEDTAVYYCARSANWHDTALDYWGQGTLVTVSS
VL: DIQMTQSPSSLSASVGDRVTITCRASQSILTYLNWYQQKPGKAPKLVIYAATSLASGVPSRFSGSGSGTDFTLTISSLQPEDFATYYCQQSYDNPLTFGGGTKVEIK
notes: VH/VL only
Consider B9, for which the results for the optical density (in the test with human ACVR2A; in the test with mouse ACVR2A; in test [1]) were 2.1 OD, 2.32 OD and 3.02 OD, respectively.

B10: 374_H06 (antibody, V domains shown)
VH: EVQLLESGGGLVQPGGSLRLSCAASGFTFSSYGMNWVRQAPGKGLEWVSNINYNGGYTGYADSVKGRFTISRDNSKNTLYLQMNSLRAEDTAVYYCARSANWHDTALDYWGQGTLVTVSS
VL: DIQMTQSPSSLSASVGDRVTITCRASQSIVSYVNWYQQKPGKAPKLVIYAATSRASGVPSRFSGSGSGTDFTLTISSLQPEDFATYYCQQSYNLPLTFGGGTKVEIK
notes: VH/VL only
Consider B10, for which the values for the optical density (with human ACVR2A; with mouse ACVR2A; in test [1]) were 3.3 OD, 3.26 OD and 3.08 OD, respectively.

B11: 374_E07 (antibody, V domains shown)
VH: EVQLLESGGGLVQPGGSLRLSCAASGFTFSDYSMNWVRQAPGKGLEWVAGINYNGGYTSYADSVKGRFTISRDNSKNTLYLQMNSLRAEDTAVYYCARSANWHDTALDYWGQGTLVTVSS
VL: DIQMTQSPSSLSASVGDRVTITCRASQSIITYVNWYQQKPGKAPKLVIYAATSRASGVPSRFSGSGSGTDFTLTISSLQPEDFATYYCQQSYNTPLTFGGGTKVEIK
notes: VH/VL only
Consider B11, for which the optical density in the test with human ACVR2A was determined as 3.63 OD; with mouse ACVR2A it was 3.58 OD; in test [1], 3.2 OD.

B12: 374_E02 (antibody, V domains shown)
VH: EVQLLESGGGLVQPGGSLRLSCAASGFTFSSYSMNWVRQAPGKGLEWVSGINYNGGYTSYADSVKGRFTISRDNSKNTLYLQMNSLRAEDTAVYYCARSANWHDTALDYWGQGTLVTVSS
VL: DIQMTQSPSSLSASVGDRVTITCRASQSILSYLNWYQQKPGKAPKLLIYAATSLASGVPSRFSGSGSGTDFTLTISSLQPEDFATYYCQQSYDLPLTFGGGTKVEIK
notes: VH/VL only
For B12, the optical density with human ACVR2A turned out to be 3.23 OD; in the test with mouse ACVR2A, 3.33 OD; in test [1], 3.18 OD.

B13: 374_E11 (antibody, V domains shown)
VH: EVQLLESGGGLVQPGGSLRLSCAASGFTFSSYGMNWVRQAPGKGLEWVSNINYNGGYTSYADSVKGRFTISRDNSKNTLYLQMNSLRAEDTAVYYCARSANWHDTALDYWGQGTLVTVSS
VL: DIQMTQSPSSLSASVGDRVTITCRASQSIVTYLNWYQQKPGKAPKLVIYAATSRASGVPSRFSGSGSGTDFTLTISSLQPEDFATYYCQQSYDSPLTFGGGTKVEIK
notes: VH/VL only
For the molecule B13, the optical density with human ACVR2A came out at 3.61 OD; in the test with mouse ACVR2A, 3.59 OD; in test [1], 3.34 OD.

B14: 374_G07 (antibody, V domains shown)
VH: EVQLLESGGGLVQPGGSLRLSCAASGFTFSSYSMNWVRQAPGKGLEWVSGINYNSGYKSYADSVKGRFTISRDNSKNTLYLQMNSLRAEDTAVYYCARSANWHDTALDYWGQGTLVTVSS
VL: DIQMTQSPSSLSASVGDRVTITCRASQSIISYLNWYQQKPGKAPKLLIYAATSRASGVPSRFSGSGSGTDFTLTISSLQPEDFATYYCQQSYDSPLTFGGGTKVEIK
notes: VH/VL only
On to B14, for which the values for the optical density (with human ACVR2A; with mouse ACVR2A; in test [1]) were 3.63 OD, 3.72 OD and 3.26 OD, respectively.

B15: 374_H03 (antibody, V domains shown)
VH: EVQLLESGGGLVQPGGSLRLSCAASGFTFSSYGMNWVRQAPGKGLEWVSGINYNSGYKSYADSVKGRFTISRDNSKNTLYLQMNSLRAEDTAVYYCARSANWHDTALDYWGQGTLVTVSS
VL: DIQMTQSPSSLSASVGDRVTITCRASQSILSYVNWYQQKPGKAPKLVIYAATSRASGVPSRFSGSGSGTDFTLTISSLQPEDFATYYCQQSYDSPLTFGGGTKVEIK
notes: VH/VL only
For B15, the optical density with human ACVR2A stood at 3.27 OD; with mouse ACVR2A, 3.27 OD; in test [1], 3.06 OD.

B16: 374_F11 (antibody, V domains shown)
VH: EVQLLESGGGLVQPGGSLRLSCAASGFTFDSYSMNWVRQAPGKGLEWVSNINYNGGYTGYADSVKGRFTISRDNSKNTLYLQMNSLRAEDTAVYYCARSANWHDTALDYWGQGTLVTVSS
VL: DIQMTQSPSSLSASVGDRVTITCRASQSILSYLNWYQQKPGKAPKLLIYAVTSLASGVPSRFSGSGSGTDFTLTISSLQPEDFATYYCQQSYESPLTFGGGTKVEIK
notes: VH/VL only
B16: the figures for the optical density (with human ACVR2A; with mouse ACVR2A; in test [1]) were 3.66 OD, 3.61 OD and 3.15 OD, respectively.

B17: 374_G06 (antibody, V domains shown)
VH: EVQLLESGGGLVQPGGSLRLSCAASGFTFSSYGMHWVRQAPGKGLEWVASINYNGGYTSYADSVKGRFTISRDNSKNTLYLQMNSLRAEDTAVYYCARSANWHDTALDYWGQGTLVTVSS
VL: DIQMTQSPSSLSASVGDRVTITCRASQSILSYLNWYQQKPGKAPKLLIYAVTSRASGVPSRFSGSGSGTDFTLTISSLQPEDFATYYCQQSYDLPLTFGGGTKVEIK
notes: VH/VL only
In the case of B17, the optical density was 3.26 OD in the test with human ACVR2A, 3.42 OD with mouse ACVR2A and 3.29 OD in test [1].
